Data published in a protein production outcome set (Wang et al. 2014).

Experiment: label from the status in PepcDB records
In the case of “MAGQSDRKAALLDQVARVGKALANGRRLQILDLLAQGERAVEAIATATGMNLTTASANLQALKSGGLVEARREGTRQYYRIAGEDVARLFALVQVVADEHLADVAVAAADVLGSPEDAITRAELLRRREAGEVTLVDVRPHEEYQAGHIPGAINIPIAELADRLAELAGDRDIVAYCRGAYCVMAPDAVRIARDAGREVKRLDDGMLEWRLAGLPVDEGAPVGHGD”, the protein production is reported as “failed”. In the case of “MAGRRRWSTEQILDAAAELLLAGDAETFSVRKLAASLGTDSSSLYRHFRNKTELLRAVADRILLSAMDGYRPEGDWKQRLTAVALRLRESFGQQPQLAAVWGRHGSGGTGSRLMMEEVLQALRASGLPDDEIPARYHRLVILISSLITAEGGFGAVGAQEHEQGMEQFRVAVLGADPERFPALSHFAREIRPLGADRGAAFEEILAAHLAHLEAAAP”, the protein production is reported as “not failed”. With “MAGTTQGAKTLYDKLWDDHLVSQRDDGSCLIYIDRHLLHEVTSPQAFEGLQLAGRQPWRLNANIATPDHNVPTSKKEREQGIAGIEDDTSRIQVQTLDDNCKTFNIVEFGINDIRQGIVHVVGPEQGLTLPGMTVVCGDSHTATHGAFGCLAHGIGTSEVEHVLATQCLIQKKSKNMLIRVDGQLGKGVTPKDVVLAIIGKIGTAGGTGYAIEFGGQVFRDMSIEGRMTVCNMAIEAGARVGMVAVDDKTIEYVQSRHYAPKGEQWDQAVAYWNTLHSDDDAVFDEVVVLNGAEIEPQVSWGTSPEMVIPVSQAVPTLEQAKDDVQRNDWTRAYQYMGLTAGQALADIQLDRVFIGSCTNSRIEDIRAAAEVVKGRKVASSIKQAMIVPGSGLVKQQAEQEGLDQVFLEAGFEWREPGCSMCLAMNSDKLQPGEHCASTSNRNFEGRQGNGGRTHLVSPAMAAAAAIAGHFVDVRSF” the protein production was “failed”. In the case of “MAGVCGSKLMMARLVGMPDLFSDSGWGSGELPRALRPGLVHLPRWMGLDQQFAVVQQCREIARSVAGTPLAMHRQQWASGTMSAYLMSLGLHWEYRTYQYVSQWGGVAVPPIPVEFSALAHEVLRAAAGVDDSLAAWVDSYRIDAALVNYYPPGAGMGMHQDAFEDSRAPVVSLSIGDSAVFRAGNGVNRQRPWQDVVLGSGDAVVFGGPSRDMFHSVVRLHAGTAPTRCGVSQGRINLTFRQVKL”, the protein production is reported as “failed”. For “MAGYKPVAIQTYPVLGEKITQDTLYWNNYKTPVQIKEFGAVSKVDFSPQLPYNYAVTASSRIHIYGRYSQEPVKTFSRFKDTAYCATFRQDGQLLVAGSEDGVVQLFDINGRAPLRQFEGHTKAVHTVDFTADNYHVVSGADDYTVKLWDIPNSKEILTFKEHSDYVRCGCASKLNPDLFVTGSYDHTVKIFDARTNKNVLCVEHGQPVESVLLFPSGGLLVSAGGRYVKVWDMLKGGQLLVSLKNHHKTVTCLCLSSSGQRLLSGSLDRKVKVYSTTSYKVVHSFDYAASILSLALSHQDETIVVGMTNGILSVKHRKSEAKKTSLPRRRRPAYRTFIKGKNYLKQRDDIMVSRPAKKHLEGYDKDLKSFRVSQALDRVLEPKCVIRTPEVTVSIIKELTRRGVLANALAGRDEKEVTRVLNFLIRNLSQPRFAPVLINAAEIIIDIYLPVIGQSSVVDKKFIVLQELVEKEIDYQRELLETLGMMDMLFATMTRNDSDPVPEHVPAELPEEKTESPTQPSDTDKNS”, the protein production was “failed”. For “MAHACVSTSASSLRFTAGFVSASPNGSSFDSPKLSLPFEPLRSRKTNKLVSDRKNWKNSTPKAVYSGNLWTPEIPSPQGVWSIRDDLQVPSSPYFPAYAQGQGPPPMVQERFQSIISQLFQYRIIRCGGAVDDDMANIIVAQLLYLDAVDPTKDIVMYVNSPGGSVTAGMAIFDTMRHIRPDVSTVCVGLAASMGAFLLSAGTKGKRYSLPNSRIMIHQPLGGAQGGQTDIDIQANEMLHHKANLNGYLAYHTGQSLEKINQDTDRDFFMSAKEAKEYGLIDGVIMNPLKALQPLAAA”, the protein production was “failed”. In the case of “MAHGVNIYNVYSISIIALLASSFLLYAQEAKGLENAMLFLSIIFPYAFYLNGHILLYLVLPAYLIVTSSVTFHYYIYELIPTLIYYFGILPKFINYNVRLMTILWES”, the protein production is reported as “failed”. For “MAHHHHHHMGGPPTIEELKREKIIPHVFPDENVDLTVDMYISFKSGKEVNHGNILDLAGTGSVPRNIKFSEEPPEDYCYILFMIDPDFPSRRRPDGRDYVHWAVSGIKSKELVKGTDKNCITLLPYVGPSIKKGTGLHRISFILSLVKEENKGNVTGVPLYRGEHYITRVKFNNCQSAYNVIQMNDMKIVGFNWCQIEA”, the protein production was “not failed”. In the case of “MAHPFLRTIFEVVITLYMLHNLYKVLGDDEMDLEEMSSFFNKRVNEYEEHMMNNVGGANQYYIETAKLIPRGKEINILDLGCGTGLELDEIFKINNTVRVTGIDLAENMLRKIKEKHKDKLDRLTLIVGDYFSCDIGEKVFDAALSVETLHHFNHEQKIKLYKKIVRSLKDNGVYIEADYMAPNQDYEDHCFNENKRIRLELGIKDGFYHYDTPCTVENQIKMLYKSGFKSVEKVFKAENTVILLAKK”, the protein production is reported as “failed”. For “MAHYKAADSKREQFRRYLEKSGVLDTLTKVLVALYEEPEKPNSALDFLKHHLGAATPENPEIELLRLELAEMKEKYEAIVEENKKLKAKLAQYEPPQEEKRAE”, the protein production was “not failed”. For “MAIDAFALILAMLGLGLLFARLRVLPDNSADVLNRIVLYICLPASVLTYVPRLHLDASLGGVIATPWLLTAIIVPLLWGCSRLLRFGRAEYAALLMCVVFTNSSFIGFPMVRALIGDHALPYAVVYDQFGTFVLLSTFGLYVLARYSGDTPPTARLIVMRVLQFPPLWALLFALTLMPGQPPAWIGSGLKNLADAMLPLVMLSVGFSLQLRLPADELKPLAVGLVFKLLLMPVLALPLSWVLGLRGQMLQTNVLESAMPTMITAAALAISHRLAPRLAAAMVGYSILLSLLTLPAWAWLLARLVA”, the protein production was “failed”. For “MAIERIQLHTHGDDRGLLISLEQQRNVPFEIRRVYYLFGTRHDVHRGQHAHRQLNQFAVALHGSVTILLDEGNGNGPSEVVLDDPSQGLLLGRMVWRDLYRFSADCVLMVLADQPYDPGDYILDYDQFVSEVRNGTALQARRLEA”, the protein production was “failed”. With “MAIIPGVEQKPMSSNLESRIDQGTGREPADMVLKGGRFFDLVTGELVASDIAICGDTVVGTCGDYKGRHEIDISGKIVVPGFIDTHLHIESSLVTPHEFDRCVLPYGVTTAICDPHEIANVLGAEGLQFFLDSAMETIMDIRVQLSSCVPATHLETSGADLPIEKLLPFRNHPKVIGLAEFMNFPGVIHKDPVCMAKLEAFQGQHIDGHAPLLSGAALNGYLAAGIRTEHECTSAAEALEKIRKGMHILVREGSVSKDLHALMPIITERLSPYLALCTDDRNPLDIAEQGHLDYMIRTAIASGVEPLAIYRAASISAAKAFGLRDRGLVAPGWRADLVVIDTLQNCKASMVLSGGRLVDDALFATRKPVAPVGLDSVKARPVLASHFGVPVTEGETPVMGVLPGKIITEHRRYKLPTDGNQTTVDLENDIIKVAVIERHGKNGNHANGFVQGFGLKKGAIASTVGHDSHNICVVGVSEDDMALAANRLGDIKGGFVVVEDGRVTGEIALPVAGLMSLEPYETVRDTLHTLRKAAYALGTTLEEPFLQVAFLPLPVIPHLKISDMGMVDVDRFALI” the protein production was “failed”. In the case of “MAIKLSSIDQFEQVIEENKYVFVLKHSETCPISANAYDQFNKFLYERDMDGYYLIVQQERDLSDYIAKKTNVKHESPQAFYFVNGEMVWNRDHGDINVSSLAQAEE”, the protein production is reported as “not failed”. With “MAILEYIMLLFIGLIAGTVGSLVGLGGGIIIVPLLIGLHSLSPQLAVGTSMVTVVFTGLSSTLTYMKHKRVDYKSGLILFIGSGPGGIIGSWANKFLNQDTFSLYFGIFLIFVSILLMLRDKLKPLSLSNTSVIKRSFTDNDGNTVHYQFPPFLAIFIAFIVGFISGLFGIGGGALLVPAMMLLFAFPAHIAVATSMFIVFLSAIVSSATHISLGNVSWIYALILIPGAWIGGKIGAYINTKLSGNAVINLLRITLIILGTRLIIISLL” the protein production was “failed”. With “MAILFAVVARGTTILAKHAWCGGNFLEVTEQILAKIPSENNKLTYSHGNYLFHYICQDRIVYLCITDDDFERSRAFNFLNEIKKRFQTTYGSRAQTAPPYAMNSEFSSVLAAQLKHHS” the protein production was “not failed”. With “MAIMASRKHLKRFKSPVHWPIHPKEYKWTVKPSPGPHAIENSLPLMIIVRDILKVADNAREARKIINSGEVLVDGRPRKNYKFPVGFMDVVSIPRTGDVYRVLPDERGRLVLHPIDEENAGFKLCKIVNKTTIKGGRTQLNLHDGRNYLSDDEFRVGDVVKLSIPEQEILERIPFEKDSLGLVTGGRHTGEIGKIKKINITRSSMPNTAVIETGAGKTFLTLKDYVFVIGKDESVISLPGGKLEHHHHHH” the protein production was “failed”. With “MAINLTPLIGFLPEFIISAIISGFLFQAITNDKTFVRPIIGGKKPEQKSILKKVSSRRKPVDMKEYERMKNKTRYQALLFNSNMHIISSSALTVSAWILLIYAMIGIGKSSIFMPTFGFKINFIVYALLVIIFSVAMISSFSQVVRLREIYRIIASVFAVLSVVIFFEIPAMKWLFYIFPKVIVSYIFIYFAGLFILFLCYSLWWKLAPKITFYVSFYSSILTYFAIVSLMIYNSIPKL” the protein production was “failed”. For “MAINRSSDHESDENTRLYHPYQNYQVPIKSQYLYKLPTSPEFLFTEESLKQRRSWGENLTFYTGTGYLAGSVAGASAGIFSGIKSFENGDTTKLKINRILNSSGQAGRTWGNRVGIVGLIYAGIESGVVAVTDKDDVWTSVVAGLGTGAVFRAARGVRSAAVAGAFGGIAAGAVVAGKQVFKRDPERGSITLDP”, the protein production was “failed”. In the case of “MAIQGSRTEGLGGYTFDDLAVVMGTYNEEEAIGTVLDDIATVTDGRAEVICVDGSSDRTPEIARDHGATVIEQEPQGYGVAVREAVLTPDRPVVVTTDCDDTYPMERLPDFLAEINDGADVVSGDRLYYGAEQMPAMNKLGNELFALLASVLMGKRVHDTTTGMRAYRREVLQKIVWTENTGLSAELLMRPLMRGYDVRERPIEYDERKGETKLDPFSGGAAIAKSIVRVALEERFRLEHHHHHH”, the protein production is reported as “not failed”. With “MAITVSIELNRDLEIPASYDEVFDLLADVPKSASHFPKVDKLVDLGNNAYRWEMEKVGVDKHAIQSVYACTYHADKEAGKITWSPIKGEGNGVVSGSWTLSAKGDNATAVKFQTSAELTVPLPSLLKLAISPVIKHEFNSLVDTYMANLKKAFLEHHHHHH” the protein production was “not failed”. In the case of “MAIYTVKALITDPIDEILIKTLREKGIQVDYMPEISKEELLNIIGNYDIIVVRSRTKVTKDVIEKGKKLKIIARAGIGLDNIDTEEAEKRNIKVVYAPGASTDSAVELTIGLMIAAARKMYTSMALAKSGIFKKIEGLELAGKTIGIVGFGRIGTKVGIIANAMGMKVLAYDILDIREKAEKINAKAVSLEELLKNSDVISLHVTVSKDAKPIIDYPQFELMKDNVIIVNTSRAVAVNGKALLDYIKKGKVYAYATDVFWNEPPKEEWELELLKHERVIVTTHIGAQTKEAQKRVAEMTTQNLLNAMKELGMI”, the protein production is reported as “not failed”. For “MAKAAKRFRTPSTTRVLYVRHAHAHGRQTWGGDDNKRPLDKKGRRQAEMLVPMLLPFKPTAIYSAVPDRCQATALPLADELGLDVSVNRLFGDDAWETDPEACKKRFTDVVAQGGVPMIVGQGDIIPEMIKWFSENGTLPIDEKIKAKKGSVWVLSFHDGVFTGADYLEHHHHHH”, the protein production was “failed”. With “MAKALEQPFDVANIPGPKMATLLEKGKPVANMIKKAKRPLLIVGPDMTDEMFERVKKFVEKDITVVATGSAITRFIDAGLGEKVNYAVLHELTQFLLDPDWKGFDGQGNYDLVLMLGSIYYHGSQMLAAIKNFAPHIRALAIDRYYHPNADMSFGNLWKKEEDYLKLLDEILAEL” the protein production was “not failed”. In the case of “MAKAMELWVGEMKKMSEKINTRNPLMQRKNSTSVVSKQQQGSEEERGLINQKIREKNEAVTMSELTVCLLMDRFVPW”, the protein production is reported as “failed”.
